Assay results published in paper PMC11508087 (PLOS Pathogens, 2024).

B1: pOA-16 (antibody, V domains shown)
VH: EEKLVESGGGLVQPGGSLTLSCVGSGFDFSLYNMIWVRQAPGKGLEWLAGIWESGVQDSYPESMKGRFTISRDNSQNTAYLKIHILGMEDTARYYCASGARCGEDRCIDLWGPGVEVVVSS
VL: QTVIQEPAMKVSPGGTVTLSCAFSSGSVTTSNYPSWFQHTPGQPPRLLMYRTSYRPTGVNSRFSGAISGNKATLTITGAQTTDEADYYCALFLNTITIPFGGGTHLTVL
B2: pOA-11 (antibody, V domains shown)
VH: EEKVVESGGGLVRPGESLRLSCVAEGVEFGRRSVRWVRQRPGKGLEFVIYMFNDAQSVDIADSVKGRFTISRDNSQNTAYLQMNRLTVEDTGRYFCLTANKWFGPGVEVVVSS
VL: AIVLTQTPLSLSVTPGESVSISCKSTKSVLDTDGTIVLNWYLQRPGQAPQRVIWSTFYRETGVPDRFTGSGSDTDFTLHISRVEAEDVGVYYCQQSRESTSFGAGTKLDLK
B3: pOA-5 (antibody, V domains shown)
VH: EEKLVESGGGLVQPGGSLRLSCVGSGFIFSSGEITWVRQAPGKGLEWLAYTTIRGTSKYYADSVGGRFTISRDDSQNTATLQMNSLRIEDTARYYCARGKEDAVQGYYGKALDLWGPGIGVVVSS
VL: SSQLTQPPGVSVSLGGTATITCQGGSFGRYYSHWYKQRPGQAPILVIYDDAKRPAGIPDRFSGSTSGNSVTLTITGAQAEDEADYYCQSVDRSGNAKFGGGTHLTVL
B4: pOA-18 (antibody, V domains shown)
V domain 1: EEKLVESGGGLVQPGGSLRLSCVGSGFTFTNYEIVWVRQAPGRGPEWISYISNGGARKAYATSVRGRFSISRDNSRNTVDLQLNNLKIEDTGRYYCVGGGHCLGDNCYSLSLWGPGVELVVSS
V domain 2: QTVIQEPAMSVSPGGTVTLTCAFYSGSVTSENYPSWFQQTSGQPPREVIYMTDNRPTGVPDRFSGSISGNKATLTITGAQAEDEADYFCMLYKGTTNVPFGGGTHLTVL
B5: pOA-4 (antibody, V domains shown)
VH: EEKLVESGGGLVRPGGSLRLSCVGSGFPWNTYSVRWVRQAPMKGLEFVAYIFKNDNDRDYASSVKGRFTISRDNSQNTAYLQMNNLRTEDTAHYYCLLANKYWGPGVEVVVSS
VL: AVVLTQTPVSLTVSVGEPASISCSSSQSLVEDDGSSVLNWYLQKPGQSPQRLIYSAVGRDTGVPDRFSGSGSGTEFTLKISRVEAEDAGVYYCQQSRFSTSFGAGSKLELK
B6: pOA-14 (antibody, V domains shown)
VH: EERLVESGGGLVQPGGSLKLSCVASGFDFQKYMINWVRQAPGKGLEWLALIWNDGKQRYYVESAHMRFTISRNNSQNTAYLEMNRLRVEETARYYCARGWGVEKMDLWGPGVEVAVSS
VL: QTVIQEPAMTVSLGGTVTLTCGFSSGSVTGTKYPNWYQQTPGQRPRLLIYSTKIRPTGVPSRFSGAISGNKATLTIMGAGAEDEADYYCSLNQNYKIIFGAGTHLIVL
B7: pOA-1 (antibody, V domains shown)
VH: EENVVESGGGLVRPGGSLRLSCIFSGFTFSTYSVRWVRQAPGKGLEFLTYIFKNVGDIDTADSVKGRFTISRDNSQNTAYLQMNSLRPEDTARYFCLVANKYWGPGVEVLVSS
VL: AIVLTQSPLSLSVSPGDSASISCRSSQSLVEDDGSSVLNWYLQRPGQSPQRLIYSAVGRDAGVPDRFSGSGSGTDFTLTISGVEAEDLGVYYCQQSKVSTTFGAGSKLDLK
B8: pOA-12 (antibody, V domains shown)
VH: EEKLVESGGGLVQPGGSLTLSCVGSGFYFSNYEIVWVRQVRGGGLEWISYVSNGGARTSYALSVKGRFTIFRDNSRNTVDLHLNNLRIEDTARYYCVGGGQCLGDNCYSMALWGPGVEVFVSS
VL: QTVIQEPAMSVSLGGTVTLTCAFTSGSVTKTNYPSWFQQTPGQPPRQLIYHTDNQATGVPSRFSGAISGNKATFTITGAQAEDEADYFCCLYRGTTNVPFGGGTRLTVL
B9: pOA-15 (antibody, V domains shown)
VH: EEKLVESGGGLVQPGGSLRLSCVGSGFDLSDYGFSWVRQAPGKGLETMAFIDSRTSSFTTYTVIGVKGRFTIDNDNALQLNSLTSEDTARYFCARGRGSNGPKGLIGAYGMDLWGPGVEVVVSS
VL: QIVIQEPAMSVSLGGTVTLTCAYRSGSVTIKDGPNWYQQTPGQPPRQLIYNTNSRPTGVPSRFSGAISGNKATLTIAGAQAEDEAEYFCILYKNLEEVRFGDGTHLSVV

Tests used:
[1] = target: FMDV O/18074 146S antigen (Foot-and-mouth disease virus serotype …, strain)
[2] = target: T1, FMDV O/Tibet/99 146S antigen (Foot-and-mouth disease virus serotype …, strain); test: BLI; RED96; […] (10 μg/ml) […]; 0.01 M PBS, 0.1% BSA, 0.02% Tween 20; global fit; details: both partners purified
T1 construct: copies: + + +

Binder	binding result [1]	Kd [2]
B1	binds	–
B2	binds	–
B3	binds	–
B4	binds	–
B5	binds	–
B6	binds	–
B7	–	40 pM
B8	binds	–
B9	binds	–
